Measurements published in the supplement of paper PMC9170038.

System: MS2 coat protein
Test: apparent KD of MS2 coat protein; higher = weaker reporter binding
Settings: Eterna round: R101
Method: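 RNA-MaP: designed FMN/MS2 RNA switches (84 nt design region) are transcribed on-chip within common flanks and titrated with SNAP-549-labelled MS2 coat protein (about 1-3000 nM) in 100 mM Tris pH 7.5, 80 mM KCl, 4 mM MgCl2, without or with 200 uM FMN. Median apparent KD per design; activation ratio = KD,OFF / KD,ON.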

UAUAAUCUUUAAGGAUAUCAGUGGCUUUGCCACUGAGAAGGUGAGGAUCACCCACCUACGUGACCCUGGUUUCAGGGUCACGAU [#AddUracilToBrourdLoops 10 - Jieux - Exclusion NG1] (puzzle (switch architecture): Exclusion NG 1)
apparent KD of MS2 coat protein (input ligand: FMN 200 uM): 11.6 nM | apparent KD of MS2 coat protein (input ligand: none): 10 nM

UAAAUAAAUCCUAGAGGAUCACCCUAGGAUAUCACCGUCGAGGUGCCAUAAUGGCACCUCGACGGUGAGAAGGAGGAAAAUAAA [#SharedSequence - SLExNG3: 4] (puzzle (switch architecture): Small Loop Exclusion NG 3)
apparent KD of MS2 coat protein (input ligand: FMN 200 uM): 6.64 nM | apparent KD of MS2 coat protein (input ligand: none): 6.46 nM

UCAUUUAUCACAGGAUAUAUUAGUAUACAGUUGUUUGGUUAUUACAUAUUAAUAGAAGGGUGAAACAUGAGGAUCACCCAUGUA [S-loop S-stateNG1 03] (puzzle (switch architecture): Small Loop Same State NG 1)
apparent KD of MS2 coat protein (input ligand: FMN 200 uM): 113 nM | apparent KD of MS2 coat protein (input ligand: none): 367 nM

GGCAGCACUUAGAAGGGAGUGCGAUAAUCGCACUCAGGAUAUGAGGAUCACCCAUAUCAAGCUGCCACUGAGGCAAAGCCUCAG [#SharedSequence - IEx NG 4-1] (puzzle (switch architecture): Inverted Exclusion NG 1)
apparent KD of MS2 coat protein (input ligand: FMN 200 uM): 9.42 nM | apparent KD of MS2 coat protein (input ligand: none): 10.6 nM

AAGUACAAGCAGAAGGCACAUGAGGAUCACCCAUGUCGGGCGUCCUGUAAGUGAGGAUAUGCUAAGUGACGGCCGCCUUGGCGG [Adienare] (puzzle (switch architecture): Inverted Small Loop Exclusion NG 1)
apparent KD of MS2 coat protein (input ligand: FMN 200 uM): 22.6 nM | apparent KD of MS2 coat protein (input ligand: none): 383 nM

UCAGUAGAGUCAGGAUAUACAAAAGGCGAUCCAUACAUGAGGAUCACCCAUGUAGAAGGGACUCUACUGUAAGUCGGAAACGAC [#StaticStemDeletion - Eli x2 4.003] (puzzle (switch architecture): Small Loop Exclusion NG 1)
apparent KD of MS2 coat protein (input ligand: FMN 200 uM): 11.6 nM | apparent KD of MS2 coat protein (input ligand: none): 165 nM

GGAGAAACAUGAGGAUCACCCAUGUAGGAUAUCGGGCCCGGGCCCGGCGAAAGCCGGGCCCGGGACGAGAAGGGCGUAAACACC [#LOL] (puzzle (switch architecture): Small Loop Exclusion NG 3)
apparent KD of MS2 coat protein (input ligand: FMN 200 uM): 8.72 nM | apparent KD of MS2 coat protein (input ligand: none): 8.74 nM

AAUAAUCUUUAAGGAUAUGACUCCGAAACGGAGUCAGAAGGUGAGGAUCACCCACCUAGCUCAGGGUCGAAAGACCCUGAGCAA [#SharedSequence - ExNG1-9] (puzzle (switch architecture): Exclusion NG 1)
apparent KD of MS2 coat protein (input ligand: FMN 200 uM): 10.6 nM | apparent KD of MS2 coat protein (input ligand: none): 9.5 nM

CACCUAAAUCCUAGAGGAUCACCCUAGGAUAUCACCGUCGAGGUGCCAUAAUGGCACCUCGACGGUGAGAAGGAGGAAAAAUAA [#SharedSequence - SLExNG3: 10] (puzzle (switch architecture): Small Loop Exclusion NG 3)
apparent KD of MS2 coat protein (input ligand: FMN 200 uM): 5.85 nM | apparent KD of MS2 coat protein (input ligand: none): 4.95 nM

CCUGCACCUCAAGGAUAUCCAGUCGUUUCGACUGGAGAAGGUGAGGAUCACCCAUCUAGCCUGACGUUUGUCAGGCAUGCAGGU [#AddUracilToBrourdLoops 5 - Jieux - Exclusion NG1] (puzzle (switch architecture): Exclusion NG 1)
apparent KD of MS2 coat protein (input ligand: FMN 200 uM): 929 nM | apparent KD of MS2 coat protein (input ligand: none): 398 nM

AAAGAUUUUUAAGGAUAUCAGUGGCAAAGCCACUGAGAAGGUGAGGAUCACCCACCUACGUGACGCUGGAAACAGCGUCACGAA [#SharedSequence ExNG1 - 25] (puzzle (switch architecture): Exclusion NG 1)
apparent KD of MS2 coat protein (input ligand: FMN 200 uM): 12.7 nM | apparent KD of MS2 coat protein (input ligand: none): 13 nM

AGCUAUGACAUGAGGAUCACCCAUGUAUACAUGGGAUUGACGUAGGAUAUGCUGAAGAUUAAAGUGCAGAAGGACGGCUUAGCG [JR #DistanceFar #Hairpin #NP SSNG3 Sub065] (puzzle (switch architecture): Same State NG 3)
apparent KD of MS2 coat protein (input ligand: FMN 200 uM): 512 nM | apparent KD of MS2 coat protein (input ligand: none): 1250 nM

GCCAUCGCAUGAGGAUAUGCUCGGGUUUCCCGAGCAGAAGGCAUGUCAUAAGACAUGAGGAUCACCCAUGUAGUUAAGAUGGCA [#HiddenHairpinInALoop - Mat - Same State NG 1 - JL mod - D3] (puzzle (switch architecture): Same State NG 1)
apparent KD of MS2 coat protein (input ligand: FMN 200 uM): 12.7 nM | apparent KD of MS2 coat protein (input ligand: none): 289 nM

CUUACUUUGUAGAAGGGUGACAUGAGGAUCACCCAUGUGCGUCGCCUGGAAGACCAGGGUACGCCACAGGAUAUACAAAGUAAG [Gesoesla] (puzzle (switch architecture): Inverted Same State NG 2)
apparent KD of MS2 coat protein (input ligand: FMN 200 uM): 113 nM | apparent KD of MS2 coat protein (input ligand: none): 119 nM

GUUGGAUUUCAGAAGGGCUCCAGCAAAGCUGGAGCAGGAUAUGAGGAUCACCCAUAUCAAUCUCCAGAAUUGAUAUGAAUCAAU [#SharedSequence - IExNG1: 9-1] (puzzle (switch architecture): Inverted Exclusion NG 1)
apparent KD of MS2 coat protein (input ligand: FMN 200 uM): 317 nM | apparent KD of MS2 coat protein (input ligand: none): 29.2 nM

AGAGCUGCUCAGAAGGAGGAUCACCCUUUCGAAAGAAAUACGGAGGCUGAAAAGCCUCCGAGAUUUUAGGAUAUGAGCAGCUCA [#SharedSequence - IExNG2: 8] (puzzle (switch architecture): Inverted Exclusion NG 2)
apparent KD of MS2 coat protein (input ligand: FMN 200 uM): 89.1 nM | apparent KD of MS2 coat protein (input ligand: none): 74.5 nM

GAAAUAUAGUCAGGAUAUCAGGACAUGAGGAUCACCCAUGUACUGAAUGGGCUGGUGAAAAGAGAUGAGAAGGGACACACUAGA [EternaBot874] (puzzle (switch architecture): Exclusion NG 2)
apparent KD of MS2 coat protein (input ligand: FMN 200 uM): 5.79 nM
